US20240270821A1, “GIP/GLP1/GCG TRI-RECEPTOR AGONISTS AND USES THEREOF” (priority 2023, published 2024)

T1: human GIP receptor (human) (UniProt P48546)
T1 sequence (looked up): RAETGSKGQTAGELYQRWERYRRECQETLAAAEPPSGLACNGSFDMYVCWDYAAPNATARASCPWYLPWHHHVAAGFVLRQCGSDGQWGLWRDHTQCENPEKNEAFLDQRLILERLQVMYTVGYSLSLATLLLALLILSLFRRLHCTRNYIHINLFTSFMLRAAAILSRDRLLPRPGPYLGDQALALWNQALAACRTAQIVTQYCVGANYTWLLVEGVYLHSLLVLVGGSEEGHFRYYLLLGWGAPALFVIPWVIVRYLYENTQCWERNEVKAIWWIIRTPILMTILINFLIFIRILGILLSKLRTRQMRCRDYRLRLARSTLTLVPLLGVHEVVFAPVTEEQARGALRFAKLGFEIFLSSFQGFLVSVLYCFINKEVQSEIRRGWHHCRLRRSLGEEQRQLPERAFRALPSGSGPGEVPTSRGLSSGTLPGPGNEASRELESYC


Legend:
Assay in all cases: cell-based or functional assay
[1] = target: hGLP-1R (Homo sapiens, UniProt P43220)
hGLP-1R, sequence (P43220 24-463): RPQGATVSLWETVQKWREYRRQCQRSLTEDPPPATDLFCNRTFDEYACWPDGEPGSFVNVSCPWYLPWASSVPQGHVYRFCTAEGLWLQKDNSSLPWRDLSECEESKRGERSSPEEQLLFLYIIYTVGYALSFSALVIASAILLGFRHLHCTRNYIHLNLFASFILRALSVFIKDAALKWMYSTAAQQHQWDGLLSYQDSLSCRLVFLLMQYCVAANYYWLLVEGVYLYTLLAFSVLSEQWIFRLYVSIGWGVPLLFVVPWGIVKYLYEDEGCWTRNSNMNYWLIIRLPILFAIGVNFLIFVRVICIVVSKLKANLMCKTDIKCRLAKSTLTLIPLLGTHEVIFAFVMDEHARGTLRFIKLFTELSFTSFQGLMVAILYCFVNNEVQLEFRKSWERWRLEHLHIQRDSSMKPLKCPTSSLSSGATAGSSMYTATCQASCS

[2] = target: T1, human GIP receptor (human)
[3] = target: human glucagon receptor (human) (UniProt P47871)
human glucagon receptor (human), sequence (P47871 26-477): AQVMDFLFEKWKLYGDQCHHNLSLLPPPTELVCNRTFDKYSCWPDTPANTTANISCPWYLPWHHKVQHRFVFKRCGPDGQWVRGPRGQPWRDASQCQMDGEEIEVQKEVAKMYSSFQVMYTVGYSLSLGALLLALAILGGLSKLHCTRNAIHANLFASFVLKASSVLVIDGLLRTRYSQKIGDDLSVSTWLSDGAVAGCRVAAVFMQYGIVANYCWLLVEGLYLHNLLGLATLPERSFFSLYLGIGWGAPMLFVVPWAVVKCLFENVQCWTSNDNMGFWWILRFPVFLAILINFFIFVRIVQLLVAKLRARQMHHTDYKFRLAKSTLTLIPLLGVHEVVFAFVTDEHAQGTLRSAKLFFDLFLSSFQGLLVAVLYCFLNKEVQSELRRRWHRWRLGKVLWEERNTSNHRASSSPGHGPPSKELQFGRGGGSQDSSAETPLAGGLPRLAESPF

Row | Binder | Relative cAMP EC50 [1] [nM] | cAMP Rel EC50 (1% HSA) [1] [nM] | Relative cAMP EC50 [2] [nM] | cAMP Rel EC50 (1% HSA) [2] [nM] | Relative cAMP EC50 [3] [nM] | cAMP Rel EC50 (1% HSA) [3] [nM] | Relative cAMP EC50, nM (0.1% casein) [1] [nM] | cAMP Rel EC50 (receptor-expressing HEK-293 cells, 1% HSA) [1] [nM] | Relative cAMP EC50, nM (0.1% casein) [2] [nM] | cAMP Rel EC50 (receptor-expressing HEK-293 cells, 1% HSA) [2] [nM] | Relative cAMP EC50, nM (0.1% casein) [3] [nM] | cAMP Rel EC50 (receptor-expressing HEK-293 cells, 1% HSA) [3] [nM]
1 | YXQGTXTSDXXIXLDXKAQXXFIEYLIEGGPSSGEPPPSGT (synthetic construct; SITE 2: note = 2-Aminoisobutyric Acid; SITE 6: note = alpha-methyl-2-fluoro-L-phenylalanine; SITE 10: note = 3-(4-Pyridyl)-L-alanine; SITE 11: note = alpha-methyl-L-serine; SITE 13: note = alpha-methyl-leucine; SITE 16: note = L-ornithine; SITE 17: note = Lysine is chemically mo) [Example 502] | 0.326 | 30.6 | 0.0337 | 2.42 | 3.8 | 395 | – | – | – | – | – | –
2 | YXQGTXTSDXSIXLDXKAQXAFIEYLEEGGPSSGEPPPS (synthetic construct; SITE 2: note = 2-Aminoisobutyric Acid; SITE 6: note = alpha-methyl-2-fluoro-L-phenylalanine; SITE 10: note = 3-(4-Pyridyl)-L-alanine; SITE 13: note = alpha-methyl-leucine; SITE 16: note = L-ornithine; SITE 17: note = Lysine is chemically modified through conjugation of the epsil) [Example 486] | – | – | – | – | – | – | 0.375 | 35 | 0.0262 | 2.57 | 4.43 | 647
3 | YXQGTXTSDXSIXLDKKAQXAFIEYLEEGGPSSGAPPPE (non-natural residues; acylated Lys; C-terminal amide; synthetic construct; SITE 2: note = 2-Aminoisobutyric Acid; SITE 6: note = alpha-methyl-2-fluoro-L-phenylalanine; SITE 10: note = 4-nitro-L-phenylalanine; SITE 13: note = alpha-methyl-leucine; SITE 17: note = Lysine is chemically modified through conjugation of the epsilon-amino group of the Lysine) [Example 495] | – | – | – | – | – | – | 0.274 | 53.8 | 0.0361 | 5.74 | 1.75 | 205
4 | YXQGTXTSDXSIXLDKKAQXAFIEYLEEGGPSSGEPPPE (synthetic construct; SITE 2: note = 2-Aminoisobutyric Acid; SITE 6: note = alpha-methyl-2-fluoro-L-phenylalanine; SITE 10: note = 3-(4-Pyridyl)-L-alanine; SITE 13: note = alpha-methyl-leucine; SITE 17: note = Lysine is chemically modified through conjugation of the epsilon-amino group of the Lysine) [Example 487] | – | – | – | – | – | – | 0.639 | 27.7 | 0.0286 | 2.26 | 5.36 | 477
5 | YXQGTXTSDXXIXLDXKAQXNFIEXLIEGGPSSGEPEPEEG (synthetic construct; SITE 2: note = 2-Aminoisobutyric Acid; SITE 6: note = alpha-methyl-2-fluoro-L-phenylalanine; SITE 10: note = 3-(4-Pyridyl)-L-alanine; SITE 11: note = alpha-methyl-L-serine; SITE 13: note = alpha-methyl-leucine; SITE 16: note = L-ornithine; SITE 17: note = Lysine is chemically mo) [Example 474] | – | – | – | – | – | – | 0.236 | 10.6 | 0.0125 | 0.743 | 3.88 | 166
6 | YXQGTXTSDXXIXLDXKAQXNFIEYLIEGGPSSGEPPPEGE (synthetic construct; SITE 2: note = 2-Aminoisobutyric Acid; SITE 6: note = alpha-methyl-2-fluoro-L-phenylalanine; SITE 10: note = 3-(4-Pyridyl)-L-alanine; SITE 11: note = alpha-methyl-L-serine; SITE 13: note = alpha-methyl-leucine; SITE 16: note = L-ornithine; SITE 17: note = Lysine is chemically mo) [Example 483] | – | – | – | – | – | – | 0.188 | 18.2 | 0.0133 | 1.17 | 1.77 | 231
7 | YXQGTXTSDXSIXLDXKAQXXFIEYLIEGGPSSGEPPPEEG (synthetic construct; SITE 2: note = 2-Aminoisobutyric Acid; SITE 6: note = alpha-methyl-2-fluoro-L-phenylalanine; SITE 10: note = 3-(4-Pyridyl)-L-alanine; SITE 13: note = alpha-methyl-leucine; SITE 16: note = L-ornithine; SITE 17: note = Lysine is chemically modified through conjugation of the epsil) [Example 477] | – | – | – | – | – | – | 0.173 | 18.7 | 0.0127 | 1.44 | 5.26 | 716
8 | YXQGTXTSDXXIXLDXKAQXNFIEYLIEGGPSSGEPPPEEG (synthetic construct; SITE 2: note = 2-Aminoisobutyric Acid; SITE 6: note = alpha-methyl-2-fluoro-L-phenylalanine; SITE 10: note = 3-(4-Pyridyl)-L-alanine; SITE 11: note = alpha-methyl-L-serine; SITE 13: note = alpha-methyl-leucine; SITE 16: note = L-ornithine; SITE 17: note = Lysine is chemically mo) [Example 482] | – | – | – | – | – | – | 0.177 | 14.9 | 0.0139 | 1.58 | 1.41 | 325
9 | YXQGTXTSDXSIXLDXKAQXXFIEXLIEGGPSSGEPPPEGT (synthetic construct; SITE 2: note = 2-Aminoisobutyric Acid; SITE 6: note = alpha-methyl-2-fluoro-L-phenylalanine; SITE 10: note = 3-(4-Pyridyl)-L-alanine; SITE 13: note = alpha-methyl-leucine; SITE 16: note = L-ornithine; SITE 17: note = Lysine is chemically modified through conjugation of the epsil) [Example 505] | 0.205 | 39 | 0.00707 | 2.1 | 0.445 | 92 | – | – | – | – | – | –
10 | YXQGTXTSDXSIXLDXKAQXXFIEYLLEGGPSSGEPPPEEG (synthetic construct; SITE 2: note = 2-Aminoisobutyric Acid; SITE 6: note = alpha-methyl-2-fluoro-L-phenylalanine; SITE 10: note = 3-(4-Pyridyl)-L-alanine; SITE 13: note = alpha-methyl-leucine; SITE 16: note = L-ornithine; SITE 17: note = Lysine is chemically modified through conjugation of the epsil) [Example 494] | – | – | – | – | – | – | 0.211 | 19.9 | 0.014 | 1.08 | 1.26 | 333
11 | YXQGTXTSDXXIXLDXKAQXXFIEYLIEGGPSSGEPPPEEG (synthetic construct; SITE 2: note = 2-Aminoisobutyric Acid; SITE 6: note = alpha-methyl-2-fluoro-L-phenylalanine; SITE 10: note = 3-(4-Pyridyl)-L-alanine; SITE 11: note = alpha-methyl-L-serine; SITE 13: note = alpha-methyl-leucine; SITE 16: note = L-ornithine; SITE 17: note = Lysine is chemically mo) [Example 476] | – | – | – | – | – | – | 0.164 | 14.6 | 0.0131 | 1.29 | 1.34 | 90.2
12 | YXQGTXTSDXSIXLDXKAQXXFIEXLIEGGPSSGEPPPEEG (synthetic construct; SITE 2: note = 2-Aminoisobutyric Acid; SITE 6: note = alpha-methyl-2-fluoro-L-phenylalanine; SITE 10: note = 3-(4-Pyridyl)-L-alanine; SITE 13: note = alpha-methyl-leucine; SITE 16: note = L-ornithine; SITE 17: note = Lysine is chemically modified through conjugation of the epsil) [Example 475] | – | – | – | – | – | – | 0.254 | 18.6 | 0.0173 | 1.85 | 2.24 | 254
13 | YXQGTXTSDXXIXLDXKAQXXFIEXLIEGGPSSGEPEPSEG (synthetic construct; SITE 2: note = 2-Aminoisobutyric Acid; SITE 6: note = alpha-methyl-2-fluoro-L-phenylalanine; SITE 10: note = 3-(4-Pyridyl)-L-alanine; SITE 11: note = alpha-methyl-L-serine; SITE 13: note = alpha-methyl-leucine; SITE 16: note = L-ornithine; SITE 17: note = Lysine is chemically mo) [Example 481] | – | – | – | – | – | – | 0.204 | 14.2 | 0.0164 | 1.19 | 1.22 | 100
14 | YXQGTXTSDXXIXLDXKAQXXFIEYLIEGGPSSGAPEPSEG (synthetic construct; SITE 2: note = 2-Aminoisobutyric Acid; SITE 6: note = alpha-methyl-2-fluoro-L-phenylalanine; SITE 10: note = 3-(4-Pyridyl)-L-alanine; SITE 11: note = alpha-methyl-L-serine; SITE 13: note = alpha-methyl-leucine; SITE 16: note = L-ornithine; SITE 17: note = Lysine is chemically mo) [Example 492] | – | – | – | – | – | – | 0.146 | 9.85 | 0.0119 | 0.84 | 1.35 | 128
15 | YXQGTXTSDXSIXLDXKAQXXFIEYLIEGGPSSGEPPPSEG (synthetic construct; SITE 2: note = 2-Aminoisobutyric Acid; SITE 6: note = alpha-methyl-2-fluoro-L-phenylalanine; SITE 10: note = 3-(4-Pyridyl)-L-alanine; SITE 13: note = alpha-methyl-leucine; SITE 16: note = L-ornithine; SITE 17: note = Lysine is chemically modified through conjugation of the epsil) [Example 489] | – | – | – | – | – | – | 0.172 | 11.8 | 0.0121 | 1.25 | 2.31 | 523
16 | HXQGTXTSDXXIXLDXKAQXNFIEYLLEGGPSSGEPPPE (synthetic construct; SITE 2: note = 2-Aminoisobutyric Acid; SITE 6: note = alpha-methyl-2-fluoro-L-phenylalanine; SITE 10: note = 3-(4-Pyridyl)-L-alanine; SITE 11: note = alpha-methyl-L-serine; SITE 13: note = alpha-methyl-leucine; SITE 16: note = L-ornithine; SITE 17: note = Lysine is chemically mo) [Example 478] | – | – | – | – | – | – | 0.243 | 28.6 | 0.106 | 26 | 8.07 | 665
17 | HXQGTXTSDXXIXLDXKAQXAFIEYLLEGGPSSGEPEPE (synthetic construct; SITE 2: note = 2-Aminoisobutyric Acid; SITE 6: note = alpha-methyl-2-fluoro-L-phenylalanine; SITE 10: note = 3-(4-Pyridyl)-L-alanine; SITE 11: note = alpha-methyl-L-serine; SITE 13: note = alpha-methyl-leucine; SITE 16: note = L-ornithine; SITE 17: note = Lysine is chemically mo) [Example 479] | – | – | – | – | – | – | 0.314 | 23.5 | 0.0905 | 7.11 | 5.98 | 432
18 | YXQGTXTSDXXIXLDXKAQXXFIEXLQEGGPSSGEPPPEGTE (synthetic construct; SITE 2: note = 2-Aminoisobutyric Acid; SITE 6: note = alpha-methyl-2-fluoro-L-phenylalanine; SITE 10: note = 3-(4-Pyridyl)-L-alanine; SITE 11: note = alpha-methyl-L-serine; SITE 13: note = alpha-methyl-leucine; SITE 16: note = L-ornithine; SITE 17: note = Lysine is chemically mo) [Example 503] | 0.525 | 26.1 | 0.0518 | 2.02 | 3.98 | 233 | – | – | – | – | – | –
19 | YXQGTXTSDXXIXLDXKAQXXFIEXLQEGGPSSGEPPPSGTE (synthetic construct; SITE 2: note = 2-Aminoisobutyric Acid; SITE 6: note = alpha-methyl-2-fluoro-L-phenylalanine; SITE 10: note = 3-(4-Pyridyl)-L-alanine; SITE 11: note = alpha-methyl-L-serine; SITE 13: note = alpha-methyl-leucine; SITE 16: note = L-ornithine; SITE 17: note = Lysine is chemically mo) [Example 504] | 0.253 | 16.5 | 0.0364 | 1.8 | 2.83 | 162 | – | – | – | – | – | –
20 | YXQGTFTSDXSXXLDKKAQXAFIEXLIEGGPSSGAPPPSGS (synthetic construct; SITE 2: note = 2-Aminoisobutyric Acid; SITE 10: note = 3-(4-Pyridyl)-L-alanine; SITE 12: note = L-ornithine; SITE 13: note = alpha-methyl-leucine; SITE 17: note = Lysine is chemically modified through conjugation of the epsilon-amino group of the Lysine side chain with (2-[2-(2-) [Example 497] | 1.08 | 161 | 0.297 | 32.6 | 2.7 | 418 | – | – | – | – | – | –
